Results taken from the supplement of paper PMC11908140.

B1: library; numbered along this chain (parent)
chain: MRKPRAAVGSGHRKQAASQEGRQKHAKNNSQAKPSACDGLARQPEEVVLQASVSSYHLFRDVAEVTAFRGSLLSWYDQEKRDLPWRRRAEDEMDLDRRAYAVWVSEVMLQQTQVATVINYYTGWMQKWPTLQDLASASLEEVNQLWAGLGYYSRGRRLQEGARKVVEELGGHMPRTAETLQQLLPGVGRYTAGAIASIAFGQATGVVDGNVARVLCRVRAIGADPSSTLVSQQLWGLAQQLVDPARPGDFNQAAMELGATVCTPQRPLCSQCPVESLCRARQRVEQEQLLASGSLSGSPDVEECAPNTGQCHLCLPPSEPWDQTLGVVNFPRKASRKPPREESSATCVLEQPGALGAQILLVQRPNSGLLAGLWEFPSVTWEPSEQLQRKALLQELQRWAGPLPATHLRHLGEVVHTFSHIKLTYQVYGLALEGQTPVTTVPPGARWLTQEEFHTAAVSTAMKKVFRVYQGQQPGTCMGSKRSQVSSPCSRKKPRMGQQVLDNFFRSHISTDAHSLNSAAQ

Variants of: B1
Assay: 8OG:A repair function score (normalized; synonymous = 0, nonsense = -1) (normalized log-likelihood score); higher = more repair activity (WT-like)
Conditions: with 8OG:A DNA repair reporter (GFP) in HEK-293 MUTYH KO cells
Summary of the method: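 GFP+ (repair) and GFP− bins of viable mCherry+ cells were collected at 72 h from MUTYH knockout HEK-293 cells bearing lentiviral MUTYH cDNA NNN codon-scan libraries in 10 pg/ml doxycycline, co-transfected with an 8OG:A GFP repair reporter and mCherry. Tile amplicons were sequenced, and per-tile Rosace fitness scores were normalized to a repair function score anchored on synonymous and nonsense distributions. Synonymous medians were set to 0 and nonsense to -1, with variants under 300 counts per million at the start removed.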
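Further: cells sorted at 72 h after reporter transfection.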

8OG:A repair function score, by site and new letter:
L361: Y -0.508, A -0.284, K -0.984, V -0.0292, R -1.12, F -0.49, N -0.575, S -0.625, I -0.107, Q -0.666, T -0.222, P -1.01, M 0.0584, C -0.101, W -0.755, H -1.22, D -1.06, E -1.08, G -0.729
I359: T 0.0861, Q -0.322, R -0.51, V -0.0354, F 0.0413, W 0.0132, H -0.143, Y -0.266, L 0.0476, C -0.249, P -1.08, S -0.465, M -0.00943, E -0.818, A -0.485, N -0.425, D -0.946, K -0.27, G -0.91
T346: K -0.886, F -0.247, E -1.03, L -0.0228, P -0.585, N -0.262, M -0.125, H -0.35, W -0.751, G -0.335, R -0.56, Q -0.787, V 0.0305, I 0.0144, S -0.168, Y -0.168
G353: S -0.0386, Y -0.16, V -0.123, T 0.0569, Q -0.109, F -0.0929, I -0.129, E -0.227, M -0.178, N -0.00787, P -0.17, C -0.0857, L -0.135, D 0.0347, A 0.00991, R -0.038, K -0.127, H -0.144, W -0.099
V348: T -0.732, C -0.104, F -0.996, R -1.43, W -1.28, S -1.25, Q -1.64, M -0.551, D -1.83, L -0.351, E -0.925, G -1.15, A -0.589, I -0.0535, Y -1.02, P -1.11, N -1.04, H -1.31, K -1.21
Q363: R 0.0264, K -0.227, N -0.441, M -0.284, C -0.306, D -0.431, G -0.38, S -0.169, A -0.167, L -0.242, V -0.293, P -0.208, F -0.479, Y -0.408, E -0.341, T -0.255, I -0.184, H 0.0355, W -0.451
E350: V -0.0826, Q -0.13, D -0.304, P -1.12, M 0.00868, G -0.128, I -0.103, R -0.162, C -0.0435, F -0.339, A -0.188, N -0.112, L -0.12, W 0.0193, T 0.0414, S 0.0422, Y -0.185, K -0.17
A357: S 0.0171, F -0.0934, E -0.0948, C 0.0134, W -0.104, R -0.0515, G -0.0641, I -0.0394, M -0.0956, Q 0.125, Y -0.118, D -0.193, K -0.152, P 0.04, V -0.0294, L -0.0718, T -0.0252, H -0.147, N 0.104
P352: L -0.0502, E -0.0129, K 0.00765, Y -0.175, A -0.0351, T 0.0253, W -0.38, S -0.0991, F -0.188, G -0.0543, V -0.096, I -0.461, R -0.124, D -0.0437
L360: W -1.54, C -0.171, Y -0.447, A -0.845, N -1.27, H -1.17, E -1.15, I -0.403, G -0.95, M -0.352, V -0.666, K -1.23, R -1.17, P -1.26, Q -0.916, D -1.19, S -1.32, F -0.195, T -1.26
L349: E -0.993, T -0.236, N -0.957, Y -0.257, V -0.0456, I 0.0298, K -1.07, H -0.39, P -0.901, S -0.842, W -0.668, R -1.15, G -1.03, F -0.112, A -0.352, D -0.966, C -0.018, M 0.0308, Q -1.83
A354: M -0.19, N -0.255, W -0.0982, P 0.0108, Q -0.0822, K -0.061, V 0.0356, I -0.0486, S -0.0885, L -0.0264, Y -0.11, R -0.0437, G -0.0387, F -0.0389, E -0.0284, H -0.107, D -0.0478, T -0.0601, C -0.078
C347: H -1.55, T -0.206, M -0.15, P -1.08, D -1.26, L -0.18, A -0.0315, I -0.0428, V -0.045, Q -1.57, Y -0.846, F -0.387, K -1.08, N -1.21, G -0.229, W -1.21, E -1.34, S -0.457, R -1.15
Q358: I -0.163, K 0.0561, G -0.334, F -0.316, V 0.112, R 0.137, P 0.069, M -0.074, Y -0.283, E -0.0404, S -0.152, H -0.152, W -0.308, C 0.0229, D -0.342, A -0.219, T 0.145, L 0.00809, N -0.131
L355: F -0.0288, H -0.0638, C -0.0489, V -0.0573, K -0.0816, Q -0.061, P -0.132, G 0.0028, E 0.0516, D -0.182, Y 0.0403, S -0.0259, A 0.00558, T 0.059, N 0.0266, M -0.0213, W -0.0689, R -0.00513, I -0.0806
R364: A -0.285
G356: C -0.0641, F -0.253, D -0.142, T -0.197, R -0.153, M -0.207, E -0.141, P -0.0644, Q 0.00571, A -0.11, W -0.0772, Y -0.0505, I -0.348, S -0.118, H -0.148, V -0.13, K -0.0901, N -0.277, L -0.2
V362: L -0.0488, A -0.284, G -0.901, C -0.232, Y -0.434, H -0.608, F -0.662, R -0.236, W -0.624, S -0.406, Q -0.414, K -0.0434, E -0.932, M -0.403, T -0.028, P -0.881, I -0.125, N -0.669, D -0.671
Q351: W -0.0304, M 0.0542, S -0.0771, N -0.125, G -0.16, H 0.0225, T -0.0645, L -0.0629, I -0.0185, D -0.266, E -0.219, C -0.0209, F -0.101, V 0.000574, P -0.756, K 0.044, Y 0.023, A -0.00592, R 0.0269
